In IntAct's records for PubMed 12221107:

B1: AP-2 complex subunit beta (Homo sapiens), P63010 (parent)
chain: MTDSKYFTTNKKGEIFELKAELNNEKKEKRKEAVKKVIAAMTVGKDVSSLFPDVVNCMQTDNLELKKLVYLYLMNYAKSQPDMAIMAVNSFVKDCEDPNPLIRALAVRTMGCIRVDKITEYLCEPLRKCLKDEDPYVRKTAAVCVAKLHDINAQMVEDQGFLDSLRDLIADSNPMVVANAVAALSEISESHPNSNLLDLNPQNINKLLTALNECTEWGQIFILDCLSNYNPKDDREAQSICERVTPRLSHANSAVVLSAVKVLMKFLELLPKDSDYYNMLLKKLAPPLVTLLSGEPEVQYVALRNINLIVQKRPEILKQEIKVFFVKYNDPIYVKLEKLDIMIRLASQANIAQVLAELKEYATEVDVDFVRKAVRAIGRCAIKVEQSAERCVSTLLDLIQTKVNYVVQEAIVVIRDIFRKYPNKYESIIATLCENLDSLDEPDARAAMIWIVGEYAERIDNADELLESFLEGFHDESTQVQLTLLTAIVKLFLKKPSETQELVQQVLSLATQDSDNPDLRDRGYIYWRLLSTDPVTAKEVVLSEKPLISEETDLIEPTLLDELICHIGSLASVYHKPPNAFVEGSHGIHRKHLPIHHGSTDAGDSPVGTTTATNLEQPQVIPSQGDLLGDLLNLDLGPPVNVPQVSSMQMGAVDLLGGGLDSLVGQSFIPSSVPATFAPSPTPAVVSSGLNDLFELSTGIGMAPGGYVAPKAVWLPAVKAKGLEISGTFTHRQGHIYMEMNFTNKALQHMTDFAIQFNKNSFGVIPSTPLAIHTPLMPNQSIDVSLPLNTLGPVMKMEPLNNLQVAVKNNIDVFYFSCLIPLNVLFVEDGKMERQVFLATWKDIPNENELQFQIKECHLNADTVSSKLQNNNVYTIAKRNVEGQDMLYQSLKLTNGIWILAELRIQPGNPNYTLSLKCRAPEVSQYIYQVYDSILKN
partner: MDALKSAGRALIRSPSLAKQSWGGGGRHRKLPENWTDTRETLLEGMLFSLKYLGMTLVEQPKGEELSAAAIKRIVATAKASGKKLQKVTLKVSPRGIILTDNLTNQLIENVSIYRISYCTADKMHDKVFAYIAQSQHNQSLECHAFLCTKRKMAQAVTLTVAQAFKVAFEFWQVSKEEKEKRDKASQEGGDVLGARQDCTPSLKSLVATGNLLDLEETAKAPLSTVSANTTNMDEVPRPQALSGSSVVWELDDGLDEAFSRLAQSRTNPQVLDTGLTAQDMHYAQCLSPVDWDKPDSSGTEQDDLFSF
B2: Low density lipoprotein receptor adapter protein 1 (Homo sapiens), Q5SW96 (parent)
chain: B1 partner

Variants of: B1
Settings: with arh_human LDLRAP1, Q5SW96

Row | effect of a mutation on the interaction | Variant
1 | decreasing interaction strength | E902A
2 | disrupting interaction strength | E849A

Variants of: B2
Settings: with ap2b1_human AP2B1, P63010

Row | effect of a mutation on the interaction | Variant
3 | disrupting interaction strength | R266A

Variants of: B2
Settings: with clh1_bovin CLTC

Row | effect of a mutation on the interaction | Variant
4 | disrupting interaction strength | D214A;E216A
5 | disrupting interaction strength | L212A;L213A
